Data: paper PMC3956926, “Acetate Kinase Isozymes Confer Robustness in Acetate Metabolism” (PLoS ONE, 2014)

B1: AckA1 (Lactococcus cremoris subsp. cremoris MG1363) (protein)
chain: MTKTLAVNAGSSSMKWQMYEMPEEKVLAKGLIERIGLKDSIVTVKFGEEKEERVFDIPNHTEAVEVLLEDLKRLKIVEEFTEITGVGHRVVAGGEIFQKSTVVTPEVLQQVKDLSALAPLHNPANAAGIEAFLNLLPDATSVVVFDTAFHTTMPEKAFRYPLPKKYYTDYAVRKYGAHGTSHMYVSQEAAKLLGKPIEETKIITAHIGNGASITAVKGGESVDTSMGFTPLAGVMMGTRTGEMDPSVFPYLIENDSELKDAQDVVDMMNKESGLYGVSGISSDMRDIIAAKDTDADAKLAFEMYVDRIQKFIGQYLAVLNGADALVFTAGIGENSVPVREAILSGLTWFGIEVDPEKNVFGVEGEISKPSSRLKVFVIPTDEELVIARDVEALKK
notes: His-tagged (vector pQE30, N-terminal tag kept), from E. coli M15 pREP4 groESL, Ni-NTA; 100 kDa by gel filtration, monomer 43 kDa, homodimer; residue V331 in ATP site
B2: AckA2 (Lactococcus cremoris subsp. cremoris MG1363) (protein)
chain: MEKTLAVNAGSSSLKWQLYEMPEETVIAKGIFERIGLSGSISTTKFNNEEHVRKQEIVDHRQAVLLLMDELIHFQLIHEFREITGIGHRVVAGGEFFKDSTIITPEVLAEIKNLSTLAPLHNPANVLGIEAFQRLLPDALAVAVFDTAFHSTLPEKAYRYPIPTKYYEDYSIRKYGAHGTSHMYVAQEAAKVLGKPLEELKIITAHIGNGASITAIEGGKSVDTSMGFTPLAGVMMGTRAGEMDASVIPYMLESDPSLRNAQDVIDILNKESGVLGVSELSSDMRDLSEAVAKGNPKAILAYEMYVDRLKKFIAQYFGVLNGADALIFTAGVGENDTAVRTDVVNGLSWFGMEIDESKNVRGAFGIISKPESKVKVLVVPTNEELVIARDVEAAK
notes: His-tagged (vector pQE30, N-terminal tag kept), from E. coli M15 pREP4 groESL, Ni-NTA; 84 kDa by gel filtration, monomer 43 kDa, homodimer; residue I331 in ATP site

How the values were obtained:
Experiment in all cases: purified protein
purified protein [1] = substrate: Nc1ncnc2c1ncn2[C@@H]1O[C@H](COP(=O)(O)OP(=O)(O)OP(=O)(O)O)[C@@H](O)[C@H]1O; assay type: biochemical, Lactococcus cremoris; conditions: OAc to Ac-P, varying acetate, 4.2 mM MgCl2, 100 mM HEPES, 400 mM potassium glutamate, pH 7.5
purified protein [2] = substrate: Nc1ncnc2c1ncn2[C@@H]1O[C@H](COP(=O)(O)OP(=O)(O)O)[C@@H](O)[C@H]1O; assay type: biochemical, Lactococcus cremoris; conditions: Ac-P to OAc, varying Ac-P, 5 mM MgSO4, 100 mM HEPES, 400 mM potassium glutamate, pH 7.5
purified protein [3] = substrate: CC(=O)OP(=O)(O)O; assay type: biochemical, Lactococcus cremoris; conditions: Ac-P to OAc, varying ADP, 5 mM MgSO4, 100 mM HEPES, 400 mM potassium glutamate, pH 7.5
purified protein [4] = substrate: CC(=O)O; conditions: OAc to Ac-P, varying ATP, 4.2 mM MgCl2, 100 mM HEPES, 400 mM potassium glutamate, pH 7.5, apparent Km

Protein | Km (purified protein [1]) | kcat (purified protein [1]) | Km (purified protein [2]) | kcat (purified protein [2]) | Km (purified protein [3]) | Km (purified protein [4]) | kcat (purified protein [4])
B1 | 0.086 (0.0078) mM | 3234 s⁻¹ | 0.94 (0.09) mM | 1033 s⁻¹ | 0.35 (0.02) mM | 22.07 (1.05) mM | 3234 s⁻¹
B2 | 0.21 (0.12) mM | 394 s⁻¹ | 1.15 (0.12) mM | 282 s⁻¹ | 0.086 (0.02) mM | 1.87 (0.29) mM | 394 s⁻¹
